The record followed here is patent publication US20230174626A1.

The assay concerns the target HCMV glycoprotein H (gH) on TB40 virus (Human Cytomegalovirus (HCMV), TB40 virus). The assay is described as follows: cell-based or functional assay.

In turn, mAb MSL-109 (antibody) registered an IC50 (µg/ml), HCMV TB40 neutralization on ARPE-19 epithelial cells of 0.89 µg/mL and an IC50 (µg/ml), HCMV TB40 neutralization on MRC-5 fibroblasts of 0.46 µg/mL.
